Measurements as given in patent publication US20260265321A1, “PEPTIDE AND POLYPEPTIDE INHIBITING THE NF-KB SIGNALING PATHWAY” (Centre National de la Recherche Scientifique, priority 2023, published 2026).
Values belong to the binder of their own block, whether it stands above or below them.

B2: G1-IKKα, full-length wt IKKα fused to the Gluc1 fragment (enzyme, human, UniProt O15111 1-745, looked up)
chain: MERPPGLRPGAGGPWEMRERLGTGGFGNVCLYQHRELDLKIAIKSCRLELSTKNRERWCHEIQIMKKLNHANVVKACDVPEELNILIHDVPLLAMEYCSGGDLRKLLNKPENCCGLKESQILSLLSDIGSGIRYLHENKIIHRDLKPENIVLQDVGGKIIHKIIDLGYAKDVDQGSLCTSFVGTLQYLAPELFENKPYTATVDYWSFGTMVFECIAGYRPFLHHLQPFTWHEKIKKKDPKCIFACEEMSGEVRFSSHLPQPNSLCSLVVEPMENWLQLMLNWDPQQRGGPVDLTLKQPRCFVLMDHILNLKIVHILNMTSAKIISFLLPPDESLHSLQSRIERETGINTGSQELLSETGISLDPRKPASQCVLDGVRGCDSYMVYLFDKSKTVYEGPFASRSLSDCVNYIVQDSKIQLPIIQLRKVWAEAVHYVSGLKEDYSRLFQGQRAAMLSLLRYNANLTKMKNTLISASQQLKAKLEFFHKSIQLDLERYSEQMTYGISSEKMLKAWKEMEEKAIHYAEVGVIGYLEDQIMSLHAEIMELQKSPYGRRQGDLMESLEQRAIDLYKQLKHRPSDHSYSDSTEMVKIIVHTVQSQDRVLKELFGHLSKLLGCKQKIIDLLPKVEVALSNIKEADNTVMFMQGKRQKEIWHLLKIACTQSSARSLVGSSLEGAVTPQTSAWLPPTSAEHDHSLSCVVTPQDGETSAQMIEENLNCLGHLSTIIHEANEEQGNSMMNLDWSWLTE
notes: Expressed in HEK293T cells for GPCA; full-length; also called Gluc1-IKKα; not shown: Gluc1 fragment of Gaussia princeps luciferase and flexible 20 amino acid linker, N-terminal

Legend:
[1] = biological target: T1, IKKβ(1-669) S177E/S181E homodimer, 6×His tag removed (human, UniProt O14920 1-669); assay: ITC, 25 °C, synthetic peptide into IKK homodimer, 1:1 model
T1 sequence (looked up): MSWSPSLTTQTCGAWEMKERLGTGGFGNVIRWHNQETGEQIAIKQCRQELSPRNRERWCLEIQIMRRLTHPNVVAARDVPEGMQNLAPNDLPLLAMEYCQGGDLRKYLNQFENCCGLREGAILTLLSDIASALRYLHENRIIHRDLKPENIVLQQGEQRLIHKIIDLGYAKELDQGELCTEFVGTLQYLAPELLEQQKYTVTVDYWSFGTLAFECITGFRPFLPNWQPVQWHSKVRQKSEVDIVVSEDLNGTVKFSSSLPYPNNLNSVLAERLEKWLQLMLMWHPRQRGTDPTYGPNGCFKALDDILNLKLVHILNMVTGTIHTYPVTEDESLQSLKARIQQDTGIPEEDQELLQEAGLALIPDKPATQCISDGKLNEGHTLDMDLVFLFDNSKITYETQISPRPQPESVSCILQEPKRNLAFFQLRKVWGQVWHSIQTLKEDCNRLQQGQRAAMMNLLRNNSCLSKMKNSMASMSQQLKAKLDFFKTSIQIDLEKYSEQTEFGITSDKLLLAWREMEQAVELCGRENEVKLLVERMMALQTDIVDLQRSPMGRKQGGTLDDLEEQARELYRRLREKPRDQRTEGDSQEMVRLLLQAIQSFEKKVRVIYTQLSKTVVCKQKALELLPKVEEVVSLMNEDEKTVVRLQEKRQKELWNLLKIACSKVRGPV
Method: (§1) All experiments were performed in ITC buffer (20 mM HEPES pH 8.0, 150 mM NaCl, 1 mM TCEP) unless otherwise stated. […] Just before the ITC experiments, IKKα or IKKβ samples were concentrated, incubated at room temperature for 30 minutes and centrifuged at 11000 g to remove eventual precipitate. The final concentrations of IKKα and IKKβ in the sample cell varied between 22 and 50 μM depending on the measurement. […] The concentration of peptides in the syringe varied between 220 and 975 μM depending on the measurement.
(§2) All ITC experiments were performed at 25° C. The data were fitted to a 1:1 binding model. […] All data were processed using NITPIC software and global fitting of two datasets was carried out using SEDPHAD.

[2] = biological target: T2, IKKα(10-667) S176E/S180E homodimer, 6×His tag removed (human, UniProt O15111 10-667); assay: as above
T2 construct: also called purified IKKα
T2 sequence (looked up): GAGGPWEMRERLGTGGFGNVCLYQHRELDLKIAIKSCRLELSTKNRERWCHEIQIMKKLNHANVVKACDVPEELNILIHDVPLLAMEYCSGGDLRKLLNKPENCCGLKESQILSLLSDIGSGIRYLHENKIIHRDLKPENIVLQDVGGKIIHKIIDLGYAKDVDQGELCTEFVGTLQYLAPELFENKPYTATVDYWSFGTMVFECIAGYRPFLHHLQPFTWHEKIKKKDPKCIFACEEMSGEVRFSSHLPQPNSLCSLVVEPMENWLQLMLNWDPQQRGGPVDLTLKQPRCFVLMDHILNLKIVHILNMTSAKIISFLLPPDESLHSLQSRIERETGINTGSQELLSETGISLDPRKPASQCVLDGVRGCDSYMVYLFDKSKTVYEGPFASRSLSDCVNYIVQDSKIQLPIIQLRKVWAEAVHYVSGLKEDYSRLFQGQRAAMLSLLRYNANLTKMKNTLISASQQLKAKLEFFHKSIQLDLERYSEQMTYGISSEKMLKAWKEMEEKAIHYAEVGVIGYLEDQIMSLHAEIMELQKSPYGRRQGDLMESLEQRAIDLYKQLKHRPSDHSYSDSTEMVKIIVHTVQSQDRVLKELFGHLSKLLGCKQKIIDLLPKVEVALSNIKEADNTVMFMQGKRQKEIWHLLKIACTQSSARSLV
Method: as §1, §2

[3] = biological target: T1, IKKβ(1-669) S177E/S181E homodimer, …; assay: ITC
Method: as §1, §2

[4] = biological target: T2, IKKα(10-667) S176E/S180E homodimer, …; assay: ITC
Method: as §1, §2

G2-p100 1-852 = biological target: T3, G2-p100 1-852 (UniProt Q00653 1-852); assay: GPCA (Gaussia princeps protein complementation assay), G1-IKKα FL with G2-p100 constructs, NLR
T3 construct: range 1-852; not shown: Gluc2 fragment of Gaussia princeps luciferase and flexible 20 amino acid linker, N-terminal
T3 sequence (looked up): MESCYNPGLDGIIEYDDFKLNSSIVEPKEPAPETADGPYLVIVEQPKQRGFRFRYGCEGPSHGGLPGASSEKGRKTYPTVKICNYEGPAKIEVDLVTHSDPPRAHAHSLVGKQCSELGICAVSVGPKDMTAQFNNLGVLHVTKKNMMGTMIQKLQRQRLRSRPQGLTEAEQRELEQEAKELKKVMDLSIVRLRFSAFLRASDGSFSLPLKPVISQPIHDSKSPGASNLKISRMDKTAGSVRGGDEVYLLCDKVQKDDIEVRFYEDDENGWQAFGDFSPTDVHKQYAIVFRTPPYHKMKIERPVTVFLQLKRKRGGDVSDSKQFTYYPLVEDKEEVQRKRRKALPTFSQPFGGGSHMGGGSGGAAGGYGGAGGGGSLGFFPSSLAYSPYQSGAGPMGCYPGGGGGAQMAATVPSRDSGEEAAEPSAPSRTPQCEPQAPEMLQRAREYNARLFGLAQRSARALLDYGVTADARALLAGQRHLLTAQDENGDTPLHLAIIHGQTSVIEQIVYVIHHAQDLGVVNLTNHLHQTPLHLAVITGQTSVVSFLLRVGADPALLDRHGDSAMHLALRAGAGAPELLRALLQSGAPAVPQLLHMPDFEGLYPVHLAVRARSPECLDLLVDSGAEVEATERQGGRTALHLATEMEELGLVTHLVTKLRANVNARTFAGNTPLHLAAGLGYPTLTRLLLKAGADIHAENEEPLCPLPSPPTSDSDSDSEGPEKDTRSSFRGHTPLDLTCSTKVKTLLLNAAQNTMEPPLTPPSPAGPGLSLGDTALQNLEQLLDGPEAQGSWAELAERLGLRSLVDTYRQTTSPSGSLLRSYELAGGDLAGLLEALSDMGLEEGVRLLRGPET
Method: (§3) HEK293T cells were transfected using the reverse transfection method. Transfection mixes containing 100 ng of pSPICA-N2 and 100 ng of pSPICA-N1 plasmids expressing test proteins plus JetPEI® (Polyplus transfection) were dispensed in white 96-well plates. HEK293T cells were then seeded on the DNA mixes at a concentration of 4.2×10^4 cells per well. 48 hours after transfection, cells were washed with 50 μl of PBS and lysed with 40 μl of Renilla lysis buffer (Promega, E2820) for 30 minutes with agitation. Gaussia princeps luciferase enzymatic activity was measured using a Berthold Centro LB960 luminometer by injecting 50 μl per well of luciferase substrate reagent (Promega, E2820) and counting luminescence for 10 seconds. Results are expressed as a fold change normalized over the sum of controls, specified herein as normalized luminescence ratio (NLR) 29. For a given protein pair A/B, NLR=(Gluc1-A+Gluc2-B)/[(Gluc1-A+Gluc2)+(Gluc1+Gluc2-B)]. All interactions were measured in three independent experiments, with each experiment being carried out in triplicate. The expression levels of Gluc1- and Gluc2-fused proteins were checked by Western blotting. 24 hours post-transfection, HEK293T cells were collected, lysed by incubation on ice and centrifuged. Aliquots of cleared supernatants were loaded onto an 10% SDS-PAGE gel.

[5] = biological target: B2; assay: as above
Method: as §3

- Kd [1]: 2.6 µM
- N (binding stoichiometry) [1]: 0.63
- TΔS [1]: -4.59 kcal/mol
- ΔG [1]: -7.61 kcal/mol
- ΔH [1]: -12.2 kcal/mol
- Kd [2]: 0.35 µM
- N (binding stoichiometry) [2]: 0.65
- TΔS [2]: -4.71 kcal/mol
- ΔG [2]: -8.8 kcal/mol
- ΔH [2]: -13.5 kcal/mol
- fold enhancement of affinity against IκBα pep wt [3]: 15 fold
- fold enhancement of affinity against IκBα pep wt [4]: 25 fold
B1: synthetic IκBα pep C308L (peptide)
peptide: EFTEDELPYDDLVFGGQRLTL
notes: also called C308L IκBα pep; IkBα pep C308L

Binder: B2
- binding result (G2-p100 1-852): binds

- binding result [5]: binds
B3: FL YD/SS (other)
chain: MESCYNPGLDGIIESDSFKLNSSIVEPKEPAPETADGPYLVIVEQPKQRGFRFRYGCEGPSHGGLPGASSEKGRKTYPTVKICNYEGPAKIEVDLVTHSDPPRAHAHSLVGKQCSELGICAVSVGPKDMTAQFNNLGVLHVTKKNMMGTMIQKLQRQRLRSRPQGLTEAEQRELEQEAKELKKVMDLSIVRLRFSAFLRASDGSFSLPLKPVISQPIHDSKSPGASNLKISRMDKTAGSVRGGDEVYLLCDKVQKDDIEVRFYEDDENGWQAFGDFSPTDVHKQYAIVFRTPPYHKMKIERPVTVFLQLKRKRGGDVSDSKQFTYYPLVEDKEEVQRKRRKALPTFSQPFGGGSHMGGGSGGAAGGYGGAGGGGSLGFFPSSLAYSPYQSGAGPMGCYPGGGGGAQMAATVPSRDSGEEAAEPSAPSRTPQCEPQAPEMLQRAREYNARLFGLAQRSARALLDYGVTADARALLAGQRHLLTAQDENGDTPLHLAIIHGQTSVIEQIVYVIHHAQDLGVVNLTNHLHQTPLHLAVITGQTSVVSFLLRVGADPALLDRHGDSAMHLALRAGAGAPELLRALLQSGAPAVPQLLHMPDFEGLYPVHLAVRARSPECLDLLVDSGAEVEATERQGGRTALHLATEMEELGLVTHLVTKLRANVNARTFAGNTPLHLAAGLGYPTLTRLLLKAGADIHAENEEPLCPLPSPPTSDSDSDSEGPEKDTRSSFRGHTPLDLTCSTKVKTLLLNAAQNTMEPPLTPPSPAGPGLSLGDTALQNLEQLLDGPEAQGSWAELAERLGLRSLVDTYRQTTSPSGSLLRSYELAGGDLAGLLEALSDMGLEEGVRLLRGPETRDKLPSTAEVKEDSAYGSQSVEQEAEKLGPPPEPPGGLCHGHPQPQVH
notes: also called G2-p100 FL YD/SS; G2-p100 FL Y15S/D17S; not shown: N-terminal Gluc2 fragment of Gaussia princeps luciferase and the flexible 20 amino acid linker (pSPICA-N2)
